The values that follow come from article PMC4434323.

Series [1] concerns ceh-53 (C09G12.1) (Caenorhabditis elegans).
Series [2] deals with ceh-36 (C37E2.4) (Caenorhabditis elegans) (UniProt Q93352).
For series [3], the target named is ceh-37 (C37E2.5) (Caenorhabditis elegans) (UniProt Q93356).
Series [4] addresses T1, ceh-34 (C10G8.6) (Caenorhabditis elegans) (UniProt Q94165).
T1 sequence: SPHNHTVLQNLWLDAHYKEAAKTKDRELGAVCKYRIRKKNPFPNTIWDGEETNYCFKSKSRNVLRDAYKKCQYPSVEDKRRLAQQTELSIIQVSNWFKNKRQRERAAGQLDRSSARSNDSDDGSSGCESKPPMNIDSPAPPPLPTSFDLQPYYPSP

Series [5] deals with T2, C07E3.6 (C07E3.6) (Caenorhabditis elegans) (UniProt Q17792).
T2 sequence: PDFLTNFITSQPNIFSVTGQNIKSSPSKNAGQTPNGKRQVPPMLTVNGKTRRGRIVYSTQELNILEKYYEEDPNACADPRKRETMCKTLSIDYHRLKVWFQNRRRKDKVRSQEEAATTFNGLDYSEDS

Series [6] concerns the target T3, med-2 (K04C2.6) (Caenorhabditis elegans) (UniProt G5EF25).
T3 sequence: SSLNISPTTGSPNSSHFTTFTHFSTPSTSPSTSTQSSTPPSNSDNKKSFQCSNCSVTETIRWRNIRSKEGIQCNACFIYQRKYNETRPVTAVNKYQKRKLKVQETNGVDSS

For series [7], the target named is T4, atf-6 (F45E6.2) (Caenorhabditis elegans) (UniProt Q20435).
T4 sequence: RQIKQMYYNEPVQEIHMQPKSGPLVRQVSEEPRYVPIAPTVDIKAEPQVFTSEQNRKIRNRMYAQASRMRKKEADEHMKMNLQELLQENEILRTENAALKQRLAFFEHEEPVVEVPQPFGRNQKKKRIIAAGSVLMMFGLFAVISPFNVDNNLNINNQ

In series [8] the target is T5, C27D6.4 (C27D6.4) (Caenorhabditis elegans) (UniProt Q4JFH9).
T5 sequence: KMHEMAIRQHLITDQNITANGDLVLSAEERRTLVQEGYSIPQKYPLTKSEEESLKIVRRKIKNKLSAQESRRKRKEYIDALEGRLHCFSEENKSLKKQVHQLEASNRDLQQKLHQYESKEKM

The target in series [9] is atf-7 (C07G2.2) (Caenorhabditis elegans) (UniProt Q86MD3).
Sequence of atf-7 (C07G2.2) (Caenorhabditis elegans) (Q86MD3 339-508): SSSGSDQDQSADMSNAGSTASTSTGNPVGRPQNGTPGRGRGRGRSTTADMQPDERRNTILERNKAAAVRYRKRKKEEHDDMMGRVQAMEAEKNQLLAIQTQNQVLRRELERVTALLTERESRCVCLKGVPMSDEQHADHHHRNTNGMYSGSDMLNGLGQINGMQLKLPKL
Series [10] deals with dmd-4 (C27C12.6) (Caenorhabditis elegans) (UniProt Q18248).
Sequence of dmd-4 (C27C12.6) (Caenorhabditis elegans) (Q18248 1-114): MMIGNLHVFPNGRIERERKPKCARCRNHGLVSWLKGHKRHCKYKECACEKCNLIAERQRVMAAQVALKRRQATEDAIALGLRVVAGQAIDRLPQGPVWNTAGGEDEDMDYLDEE
Series [11] concerns the target T6, end-1 (F58E10.2) (Caenorhabditis elegans) (UniProt G5EDN4).
T6 sequence: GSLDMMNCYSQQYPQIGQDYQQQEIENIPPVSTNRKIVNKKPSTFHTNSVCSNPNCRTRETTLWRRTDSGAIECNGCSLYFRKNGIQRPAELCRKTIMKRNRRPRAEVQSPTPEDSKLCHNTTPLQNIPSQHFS

Sequence of ceh-37 (C37E2.5) (Caenorhabditis elegans) (Q93356 1-148): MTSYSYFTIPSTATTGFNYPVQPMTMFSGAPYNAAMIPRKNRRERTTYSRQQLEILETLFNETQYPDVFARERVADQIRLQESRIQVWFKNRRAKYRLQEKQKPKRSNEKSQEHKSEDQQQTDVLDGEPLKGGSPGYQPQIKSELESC
Sequence of ceh-36 (C37E2.4) (Caenorhabditis elegans) (Q93352 6-165): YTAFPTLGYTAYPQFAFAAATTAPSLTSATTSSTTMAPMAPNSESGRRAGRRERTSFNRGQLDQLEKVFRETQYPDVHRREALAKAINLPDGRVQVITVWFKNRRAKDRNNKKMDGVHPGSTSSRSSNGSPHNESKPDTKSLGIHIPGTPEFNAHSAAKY
Sequence of ceh-53 (C09G12.1) (Caenorhabditis elegans) (chain, as listed by the source): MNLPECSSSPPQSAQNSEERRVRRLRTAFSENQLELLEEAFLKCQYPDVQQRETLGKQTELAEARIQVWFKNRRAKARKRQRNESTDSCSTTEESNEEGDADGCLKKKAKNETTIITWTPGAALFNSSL

Take “CGGATTAA (double strand) [8-mer CGGATTAA]”: the binding signal (PBM E-score (-0.5 to 0.5)) came out at 0.494 in series [1], 0.489 in series [2] and 0.492 in series [3]. Turning to “GGGGATTA (double strand) [8-mer GGGGATTA]”, the results for the binding signal (PBM E-score (-0.5 to 0.5)) in [1], in series [2] and in series [3] were 0.497, 0.495 and 0.494, respectively. For “GATACCCC (double strand) [8-mer GATACCCC]”, the binding signal (PBM E-score (-0.5 to 0.5)) in series [4] was determined as 0.48.

In the case of “CGGATTAG (double strand) [8-mer CGGATTAG]”, the binding signal (PBM E-score (-0.5 to 0.5)) in series [1] came to 0.496. In series [2], “TAATCCTA (double strand) [8-mer TAATCCTA]” came in with a binding signal (PBM E-score (-0.5 to 0.5)) of 0.492.

Sequence “GCTAATTA (double strand) [8-mer GCTAATTA]” displayed a binding signal (PBM E-score (-0.5 to 0.5)) in [5] of 0.496.

As for “AAGGATTA (double strand) [8-mer AAGGATTA]”, the binding signal (PBM E-score (-0.5 to 0.5)) in [1] was determined as 0.495; in [2], 0.492; in [3], 0.493.

As for “ACGGATTA (double strand) [8-mer ACGGATTA]”, the binding signal (PBM E-score (-0.5 to 0.5)) in [1] stood at 0.494; in [3], 0.487.

“GAGTATCA (double strand) [8-mer GAGTATCA]” displayed a binding signal (PBM E-score (-0.5 to 0.5)) in series [4] of 0.46. For the sequence “TAATCCGA (double strand) [8-mer TAATCCGA]”, the binding signal (PBM E-score (-0.5 to 0.5)) in series [3] is 0.489. In turn, “GTATACCA (double strand) [8-mer GTATACCA]” returned a binding signal (PBM E-score (-0.5 to 0.5)) in [6] of 0.495. For “AGGGTATC (double strand) [8-mer AGGGTATC]”, the binding signal (PBM E-score (-0.5 to 0.5)) in [4] was found to be 0.466. Take “CTTAATCC (double strand) [8-mer CTTAATCC]”: the binding signal (PBM E-score (-0.5 to 0.5)) in [1] is 0.494; in [2], 0.489. On to “ATGATACC (double strand) [8-mer ATGATACC]”, for which the binding signal (PBM E-score (-0.5 to 0.5)) in series [4] is 0.481.

In series [6], “AGTATACT (double strand) [8-mer AGTATACT]” came in with a binding signal (PBM E-score (-0.5 to 0.5)) of 0.5. In series [3], “ATAATCCG (double strand) [8-mer ATAATCCG]” had a binding signal (PBM E-score (-0.5 to 0.5)) of 0.49. With “CACGTGGC (double strand) [8-mer CACGTGGC]”, the binding signal (PBM E-score (-0.5 to 0.5)) in [7] stood at 0.464; in [8] it was 0.499. “AGTATACA (double strand) [8-mer AGTATACA]” came in with a binding signal (PBM E-score (-0.5 to 0.5)) in series [6] of 0.498. With “GATATCCC (double strand) [8-mer GATATCCC]”, in series [4], the binding signal (PBM E-score (-0.5 to 0.5)) was determined as 0.466.

“AGGTATCA (double strand) [8-mer AGGTATCA]”: the binding signal (PBM E-score (-0.5 to 0.5)) in series [4] amounted to 0.474. “GGTATCAC (double strand) [8-mer GGTATCAC]”: the binding signal (PBM E-score (-0.5 to 0.5)) in series [4] was 0.476.

In series [6], “AGTATACC (double strand) [8-mer AGTATACC]” yielded a binding signal (PBM E-score (-0.5 to 0.5)) of 0.499. Consider “GGATTAAC (double strand) [8-mer GGATTAAC]”, for which the binding signal (PBM E-score (-0.5 to 0.5)) in [1] was determined as 0.495; in [2], 0.49; in [3] it was 0.492. “GGGTATCA (double strand) [8-mer GGGTATCA]”: the binding signal (PBM E-score (-0.5 to 0.5)) in series [4] was determined as 0.49. Consider “CCACGTCA (double strand) [8-mer CCACGTCA]”, for which the binding signal (PBM E-score (-0.5 to 0.5)) in series [7] turned out to be 0.488; in [8], 0.496; in series [9], 0.496. With “AGGATTAA (double strand) [8-mer AGGATTAA]”, the binding signal (PBM E-score (-0.5 to 0.5)) came out at 0.494 in [1], 0.492 in series [2] and 0.491 in series [3]. Consider “AATGATAC (double strand) [8-mer AATGATAC]”, for which the values for the binding signal (PBM E-score (-0.5 to 0.5)) in series [4] and in series [10] were 0.461 and 0.482, respectively. In turn, “AAGTATCA (double strand) [8-mer AAGTATCA]” came in with a binding signal (PBM E-score (-0.5 to 0.5)) in series [4] of 0.468. Turning to “AGGATTAG (double strand) [8-mer AGGATTAG]”, the binding signal (PBM E-score (-0.5 to 0.5)) in [1] came to 0.496; in series [2], 0.492. Sequence “AGGTATAC (double strand) [8-mer AGGTATAC]” displayed a binding signal (PBM E-score (-0.5 to 0.5)) in series [6] of 0.496.

Turning to “CAGTATAC (double strand) [8-mer CAGTATAC]”, the binding signal (PBM E-score (-0.5 to 0.5)) in series [6] was 0.498. “GGGATTAA (double strand) [8-mer GGGATTAA]”: the binding signal (PBM E-score (-0.5 to 0.5)) in series [1] was determined as 0.496; in series [2] it was 0.494; in series [3], 0.493.

On to “AAAGTATA (double strand) [8-mer AAAGTATA]”, for which, in series [6], the binding signal (PBM E-score (-0.5 to 0.5)) was 0.496. “GCGGATTA (double strand) [8-mer GCGGATTA]”: the binding signal (PBM E-score (-0.5 to 0.5)) in series [1] amounted to 0.494; in [2] it was 0.491; in series [3], 0.491. As to “GGGTATAC (double strand) [8-mer GGGTATAC]”, the binding signal (PBM E-score (-0.5 to 0.5)) in series [6] stood at 0.496.

With “GCTAATCC (double strand) [8-mer GCTAATCC]”, the figures for the binding signal (PBM E-score (-0.5 to 0.5)) in series [1], in series [2] and in [3] were 0.497, 0.493 and 0.49, respectively. For the sequence “ATGATATC (double strand) [8-mer ATGATATC]”, the binding signal (PBM E-score (-0.5 to 0.5)) in [11] stood at 0.484; in [4], 0.476. With “GATAATCC (double strand) [8-mer GATAATCC]”, the binding signal (PBM E-score (-0.5 to 0.5)) in series [3] worked out at 0.491. In [6], “AGTATCCA (double strand) [8-mer AGTATCCA]” displayed a binding signal (PBM E-score (-0.5 to 0.5)) of 0.495. Regarding “ACTAATCC (double strand) [8-mer ACTAATCC]”, the binding signal (PBM E-score (-0.5 to 0.5)) in series [1] came to 0.497; in series [2], 0.49. Regarding “AGTATACG (double strand) [8-mer AGTATACG]”, the binding signal (PBM E-score (-0.5 to 0.5)) in series [6] was determined as 0.496. With “ATTGATAC (double strand) [8-mer ATTGATAC]”, the binding signal (PBM E-score (-0.5 to 0.5)) in series [4] was found to be 0.467; in series [10], 0.487. “CGGTATAC (double strand) [8-mer CGGTATAC]” had a binding signal (PBM E-score (-0.5 to 0.5)) in series [6] of 0.495. Consider “AGTAATTA (double strand) [8-mer AGTAATTA]”, for which the binding signal (PBM E-score (-0.5 to 0.5)) in [5] was 0.494.

“GCCACGTA (double strand) [8-mer GCCACGTA]”: the binding signal (PBM E-score (-0.5 to 0.5)) in series [7] was determined as 0.48; in [8], 0.497. “AAGTATAC (double strand) [8-mer AAGTATAC]”: the binding signal (PBM E-score (-0.5 to 0.5)) in series [6] stood at 0.499. For “GGTATACC (double strand) [8-mer GGTATACC]”, in series [6], the binding signal (PBM E-score (-0.5 to 0.5)) is 0.496. On to “GGATTAAA (double strand) [8-mer GGATTAAA]”, for which the binding signal (PBM E-score (-0.5 to 0.5)) in series [2] amounted to 0.49; in series [3] it was 0.488. As to “ATATCCCC (double strand) [8-mer ATATCCCC]”, the binding signal (PBM E-score (-0.5 to 0.5)) in series [4] stood at 0.474. With “GAGTATAC (double strand) [8-mer GAGTATAC]”, in series [6], the binding signal (PBM E-score (-0.5 to 0.5)) is 0.499.

Consider “ACGTGGCA (double strand) [8-mer ACGTGGCA]”, for which the binding signal (PBM E-score (-0.5 to 0.5)) in [7] was determined as 0.477; in series [8] it was 0.499. Regarding “GGGGGATA (double strand) [8-mer GGGGGATA]”, the binding signal (PBM E-score (-0.5 to 0.5)) in series [4] stood at 0.463. Turning to “CCACGTGG (double strand) [8-mer CCACGTGG]”, the binding signal (PBM E-score (-0.5 to 0.5)) in series [7] was 0.48; in [8], 0.499. Turning to “ACGTGGCT (double strand) [8-mer ACGTGGCT]”, the binding signal (PBM E-score (-0.5 to 0.5)) in series [7] is 0.466; in series [8], 0.492.

For “CTAATCCC (double strand) [8-mer CTAATCCC]”, the results for the binding signal (PBM E-score (-0.5 to 0.5)) in series [1] and in series [2] were 0.496 and 0.49, respectively.

In turn, “GTATACTA (double strand) [8-mer GTATACTA]” gave a binding signal (PBM E-score (-0.5 to 0.5)) in series [6] of 0.499. “AGGGATTA (double strand) [8-mer AGGGATTA]”: in series [3], the binding signal (PBM E-score (-0.5 to 0.5)) came out at 0.487.
